From patent US20220380459A1 (DRAGONFLY THERAPEUTICS, published 2022)
Where two headings read alike, the source gives them in different places. Blank lines part the entries; values can stand above or below the binder they belong to.

Experiments:
[1] = target: T1, cyno CD33 extracellular domain (Cynomolgus/Rhesus (cyno)); assay: SPR, Fab captured, 37C;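 further: surface plasmon resonance with Fabs captured on anti-Fab surface, soluble monomeric CD33 as analyte at several concentrations, double-referenced 1:1 model fit, KD as koff/kon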
T1 construct: soluble monomeric ECD; also called cyno CD33 ECD
Experimental: (§1) Kinetics and affinity of a series of Fab fragments of anti-CD33 antibodies with different CD33 variants (human CD33 ECD, cyno CD33 ECD, V-domain of human CD33, C-domain or human CD33 and selected CD33 SNPs) were assessed by surface plasmon resonance using Biacore 8K instrument (GE Healthcare). Anti-Fab antibody was immobilized on a CMS chip using standard amine coupling chemistry. CD33 FABs were captured on the anti-Fab chip at a density of ˜100 RU. Solutions containing different concentrations of soluble monomeric CD33 or its domains were injected over the captured FABs and control surfaces at 30 μl/min at 37° C. Surfaces were regenerated between cycles by quick injection of 10 mM glycine, pH 1.8. To obtain kinetic rate constants double-referenced data were fit to a 1:1 interaction model using Biacore 8K Evaluation software (GE Healthcare). The equilibrium binding constant KD was determined by the ratio of binding rate constants kd/kₐ.
(§2) Affinity of 29 Fab fragments binding to human and cyno CD33 ECD were assayed by Biacore analysis.

[2] = target: T2, human CD33 extracellular domain (human, UniProt P20138 18-259); assay: SPR, Fab captured, 37C
T2 construct: soluble monomeric ECD; also called human CD33 ECD; hCD33
Experimental: as §1, §2

[3] = target: T2, human CD33 extracellular domain; assay: BLI Octet, IgG loaded;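 further: IgGs captured on AHC biosensors, exposed to 100 nM antigen for 3 min association then 3 min dissociation in buffer, kinetics fitted with a 1:1 binding model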
Experimental: Briefly, ForteBio affinity measurements were performed by loading IgGs on-line onto AHC sensors. Sensors were equilibrated off-line in assay buffer for 30 min and then monitored on-line for 60 seconds for baseline establishment. Sensors with loaded IgGs were exposed to 100 nM antigen for 3 minutes, and afterwards were transferred to assay buffer for 3 min for off-rate measurement. All kinetics were analyzed using the 1:1 binding model.

V domain of human CD33 [4] = target: T3, V domain of human CD33 (human, UniProt P20138 18-139, limits assumed); assay: SPR, Fab captured, 37C
T3 construct: recombinant, fully glycosylated V domain; also called Human CD33 V domain
Experimental: as §1
(§3) The ability of anti-CD33 antibodies to recognize glycosylated CD33 was assayed. […] De-glycosylation status was confirmed by a shift on SDS-PAGE and MS.

[5] = target: T4, deglycosylated V domain of human CD33 (human, UniProt P20138 18-139, limits assumed, N-glycans removed by PNGase); assay: SPR, Fab captured, 37C
T4 construct: V domain deglycosylated by PNGase before testing; also called deglycosylated V CD33
Experimental: as §1, §3

V domain of human CD33 [6] = target: T3, V domain of human CD33; assay: SPR, Fab captured, 37C; remark: listed apart in the source
Experimental: as §1

C domain of human CD33 = target: T5, C domain of human CD33 (human, UniProt P20138 140-259, limits assumed); assay: SPR, Fab captured, 37C
T5 construct: recombinant C domain

[7] = target: T2, human CD33 extracellular domain; assay: SPR, Fab captured, 37C; remark: listed apart in the source
Experimental: as §1

[8] = target: T2, human CD33 extracellular domain; assay: SPR, Fab captured, 37C; remark: listed apart in the source

binding result [1]: no binding (tested: 100 nM)
Kd [2]: 16700 pM
koff [2]: 0.0122 s⁻¹
kon [2]: 735000 M⁻¹ s⁻¹
B1: Fab fragment from Lintuzumab (Fab, V domains shown)
VH: QVQLVQSGAEVKKPGSSVKVSCKASGYTFTDYNMHWVRQAPGQGLEWIGYIYPYNGGTGYNQKFKSKATITADESTNTAYMELSSLRSEDTAVYYCARGRPAMDYWGQGTLVTVSS
VL: DIQMTQSPSSLSASVGDRVTITCRASESVDNYGISFMNWFQQKPGKAPKLLIYAASNQGSGVPSRFSGSGSGTDFTLTISSLQPDDFATYYCQQSKEVPWTFGQGTKVEIK
notes: Fab fragment

Kd [3]: 2210 pM
koff [3]: 0.000952 s⁻¹
kon [3]: 431000 M⁻¹ s⁻¹
B2: Lintuzumab (antibody, V domains shown)
VH: QVQLVQSGAEVKKPGSSVKVSCKASGYTFTDYNMHWVRQAPGQGLEWIGYIYPYNGGTGYNQKFKSKATITADESTNTAYMELSSLRSEDTAVYYCARGRPAMDYWGQGTLVTVSS
VL: DIQMTQSPSSLSASVGDRVTITCRASESVDNYGISFMNWFQQKPGKAPKLLIYAASNQGSGVPSRFSGSGSGTDFTLTISSLQPDDFATYYCQQSKEVPWTFGQGTKVEIK
notes: IgG; also called lintuzumab IgG

Kd (V domain of human CD33 [4]): 127000 pM
koff (V domain of human CD33 [4]): 0.133 s⁻¹
kon (V domain of human CD33 [4]): 1.04e+06 M⁻¹ s⁻¹
Kd [5]: 88100 pM
koff [5]: 0.231 s⁻¹
kon [5]: 2.63e+06 M⁻¹ s⁻¹
binding result [1]: no binding (tested: 100 nM)
Kd (V domain of human CD33 [6]): 127000 pM
koff (V domain of human CD33 [6]): 0.133 s⁻¹
kon (V domain of human CD33 [6]): 1.04e+06 M⁻¹ s⁻¹
binding result (C domain of human CD33): no binding
B3: ADI-10158 Fab (Fab, V domains shown)
VH: QVQLQQWGAGLLKPSETLSLTCAVYGGSFSGYYWSWIRQPPGKGLEWIGEIDHSGSTNYNPSLKSRVTISVDTSKNQFSLKLSSVTAADTAVYYCARQGIHGLRYFDLWGRGTLVTVSS
VL: EIVMTQSPATLSLSPGERATLSCRASQSVSSYLAWYQQKPGQAPRLLIYDASNRATGIPARFSGSGSGTDFTLTISSLEPEDFAVYYCQQDHNFPYTFGGGTKVEIK
notes: Fab fragment; also called Ab14

binding result [5]: no binding
binding result [1]: no binding (tested: 100 nM)
binding result (V domain of human CD33 [6]): no binding
binding result (C domain of human CD33): no binding
B4: ADI-10168 Fab (Fab, V domains shown)
VH: QVQLVQSGAEVKKPGSSVKVSCKASGGTFSSYAISWVRQAPGQGLEWMGSIIPIFGTANYAQKFQGRVTITADESTSTAYMELSSLRSEDTAVYYCAREVGYGWYTKIAFDIWGQGTMVTVSS
VL: EIVLTQSPATLSLSPGERATLSCRASQSVSSYLAWYQQKPGQAPRLLIYDASKRATGIPARFSGSGSGTDFTLTISSLEPEDFAVYYCQQSSNHPSTFGGGTKVEIK
notes: Fab fragment; also called Ab21

Kd [3]: 281 pM
koff [3]: 0.000237 s⁻¹
kon [3]: 844000 M⁻¹ s⁻¹
B5: ADI-11835 IgG (antibody, V domains shown)
VH: QLQLQESGPGLVKPSETLSLTCTVSGGSISSTDYYWGWIRQPPGKGLEWIGSIGYSGTYYNPSLKSRVTISVDTSKNQFSLKLSSVTAADTAVYYCARETAHDVHGMDVWGQGTTVTVSS
VL: EIVLTQSPATLSLSPGERATLSCRASHSVYSYLAWYQQKPGQAPRLLIYDASNRATGIPARFSGSGSGTDFTLTISSLEPEDFAVYYCQQYDNLPTFGGGTKVEIK
notes: IgG; also called Ab10; I35

Kd [3]: 4200 pM
koff [3]: 0.000336 s⁻¹
kon [3]: 79900 M⁻¹ s⁻¹
B6: ADI-10157 IgG (antibody, V domains shown)
VH: QVQLQESGPGLVKPSETLSLTCTVSGGSISSYYWSWIRQPPGKGLEWIGSIYYSGSTNYNPSLKSRVTISVDTSKNQFSLKLSSVTAADTAVYYCARVGGVYSTIETYGMDVWGQGTTVTVSS
VL: EIVMTQSPATLSVSPGERATLSCRASQSVSSNLAWYQQKPGQAPRLLIYGASTRATGIPARFSGSGSGTEFTLTISSLQSEDFAVYYCQQYTVYPPTFGGGTKVEIK
notes: IgG; also called Ab13

Kd [5]: 156000 pM
koff [5]: 0.203 s⁻¹
kon [5]: 1.3e+06 M⁻¹ s⁻¹
binding result [1]: no binding (tested: 100 nM)
binding result (C domain of human CD33): no binding
B7: ADI-10165 Fab (Fab, V domains shown)
VH: EVQLVESGGGLVQPGGSLRLSCAASGFTFSSYWMSWVRQAPGKGLEWVANIKQDGSEKYYVDSVKGRFTISRDNAKNSLYLQMNSLRAEDTAVYYCARDVGPGIAYQGHFDYWGQGTLVTVSS
VL: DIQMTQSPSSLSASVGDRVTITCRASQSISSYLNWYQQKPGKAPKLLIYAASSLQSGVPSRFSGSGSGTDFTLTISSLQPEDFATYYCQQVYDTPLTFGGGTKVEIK
notes: Fab fragment; also called Ab19

Kd [3]: 2450 pM
koff [3]: 0.00172 s⁻¹
kon [3]: 704000 M⁻¹ s⁻¹
B8: ADI-11839 IgG (antibody, V domains shown)
VH: QVQLVQSGAEVKKPGASVKVSCKASGYTFSNYYMHWVRQAPGQGLEWMGWINPFSGGTRYAQKFQGRVTMTRDTSTSTVYMELSSLRSEDTAVYYCARDVGSSAYYYMDVWGKGTTVTVSS
VL: DIQMTQSPSSVSASVGDRVTITCEASKGISSWLAWYQQKPGKAPKLLIYAASDLQSGVPSRFSGSGSGTDFTLTISSLQPEDFATYYCQQAFLFPPTFGGGTKVEIK
notes: IgG; also called Ab28

Kd (V domain of human CD33 [4]): 280 pM
koff (V domain of human CD33 [4]): 0.000847 s⁻¹
kon (V domain of human CD33 [4]): 3.07e+06 M⁻¹ s⁻¹
Kd [5]: 190 pM
koff [5]: 0.000745 s⁻¹
kon [5]: 3.9e+06 M⁻¹ s⁻¹
Kd [1]: 150 pM
koff [1]: 0.000151 s⁻¹
kon [1]: 998000 M⁻¹ s⁻¹
Kd [2]: 290 pM
koff [2]: 0.000332 s⁻¹
kon [2]: 1.14e+06 M⁻¹ s⁻¹
Kd (V domain of human CD33 [6]): 280 pM
koff (V domain of human CD33 [6]): 0.000847 s⁻¹
kon (V domain of human CD33 [6]): 3.07e+06 M⁻¹ s⁻¹
Kd [7]: 290 pM
koff [7]: 0.000332 s⁻¹
kon [7]: 1.14e+06 M⁻¹ s⁻¹
Kd [8]: 290 pM
koff [8]: 0.000332 s⁻¹
kon [8]: 1.14e+06 M⁻¹ s⁻¹
binding result (C domain of human CD33): no binding
B9: ADI-11807 Fab (Fab, V domains shown)
VH: EVQLVESGGGLVQPGGSLRLSCAASGFTFGSYWMSWVRQAPGKGLEWVATIKQDGSEKSYVDSVKGRFTISRDNAKNSLYLQMNSLRAEDTAVYYCARPLNAGELDVWGQGTMVTVSS
VL: DIQMTQSPSTLSASVGDRVTITCRASQSISSWLAWYQQKPGKAPKLLIYEASSLESGVPSRFSGSGSGTEFTLTISSLQPDDFATYYCQQSQSYPPITFGGGTKVEIK
notes: Fab fragment; also called Ab5; I07

Kd [3]: 307 pM
koff [3]: 0.0002 s⁻¹
kon [3]: 651000 M⁻¹ s⁻¹
B10: ADI-11807 IgG (antibody, V domains shown)
VH: EVQLVESGGGLVQPGGSLRLSCAASGFTFGSYWMSWVRQAPGKGLEWVATIKQDGSEKSYVDSVKGRFTISRDNAKNSLYLQMNSLRAEDTAVYYCARPLNAGELDVWGQGTMVTVSS
VL: DIQMTQSPSTLSASVGDRVTITCRASQSISSWLAWYQQKPGKAPKLLIYEASSLESGVPSRFSGSGSGTEFTLTISSLQPDDFATYYCQQSQSYPPITFGGGTKVEIK
notes: IgG; also called Ab5; I07

Kd (V domain of human CD33 [4]): 300 pM
koff (V domain of human CD33 [4]): 0.000769 s⁻¹
kon (V domain of human CD33 [4]): 2.6e+06 M⁻¹ s⁻¹
Kd [5]: 210 pM
koff [5]: 0.000711 s⁻¹
kon [5]: 3.4e+06 M⁻¹ s⁻¹
Kd [1]: 118 pM
koff [1]: 0.000126 s⁻¹
kon [1]: 1.06e+06 M⁻¹ s⁻¹
Kd [2]: 1.2 pM
koff [2]: 1.23e-06 s⁻¹
kon [2]: 1.02e+06 M⁻¹ s⁻¹
Kd (V domain of human CD33 [6]): 300 pM
koff (V domain of human CD33 [6]): 0.000769 s⁻¹
kon (V domain of human CD33 [6]): 2.6e+06 M⁻¹ s⁻¹
Kd [7]: 1.2 pM
koff [7]: 1.23e-06 s⁻¹
kon [7]: 1.02e+06 M⁻¹ s⁻¹
Kd [8]: 1.2 pM
koff [8]: 1.23e-06 s⁻¹
kon [8]: 1.02e+06 M⁻¹ s⁻¹
binding result (C domain of human CD33): no binding
B11: ADI-11809 Fab (Fab, V domains shown)
VH: EVQLVESGGGLVQPGGSLRLSCAASGFTFPSYWMSWVRQAPGKGLEWVATIKRDGSEKGYVDSVKGRFTISRDNAKNSLYLQMNSLRAEDTAVYYCARPLNAGELDVWGQGTMVTVSS
VL: DIQMTQSPSTLSASVGDRVTITCRASQSISSWLAWYQQKPGKAPKLLIYEASSLESGVPSRFSGSGSGTEFTLTISSLQPDDFATYYCQQSQSYPPITFGGGTKVEIK
notes: Fab fragment; also called Ab6

Kd [3]: 313 pM
koff [3]: 0.0002 s⁻¹
kon [3]: 638000 M⁻¹ s⁻¹
B12: ADI-11809 IgG (antibody, V domains shown)
VH: EVQLVESGGGLVQPGGSLRLSCAASGFTFPSYWMSWVRQAPGKGLEWVATIKRDGSEKGYVDSVKGRFTISRDNAKNSLYLQMNSLRAEDTAVYYCARPLNAGELDVWGQGTMVTVSS
VL: DIQMTQSPSTLSASVGDRVTITCRASQSISSWLAWYQQKPGKAPKLLIYEASSLESGVPSRFSGSGSGTEFTLTISSLQPDDFATYYCQQSQSYPPITFGGGTKVEIK
notes: IgG; also called Ab6

Kd (V domain of human CD33 [4]): 330 pM
koff (V domain of human CD33 [4]): 0.00143 s⁻¹
kon (V domain of human CD33 [4]): 4.52e+06 M⁻¹ s⁻¹
Kd [5]: 280 pM
koff [5]: 0.00136 s⁻¹
kon [5]: 4.85e+06 M⁻¹ s⁻¹
Kd [1]: 1810 pM
koff [1]: 0.00472 s⁻¹
kon [1]: 2.62e+06 M⁻¹ s⁻¹
Kd [2]: 780 pM
koff [2]: 0.00124 s⁻¹
kon [2]: 1.6e+06 M⁻¹ s⁻¹
Kd (V domain of human CD33 [6]): 330 pM
koff (V domain of human CD33 [6]): 0.00143 s⁻¹
kon (V domain of human CD33 [6]): 4.52e+06 M⁻¹ s⁻¹
Kd [7]: 780 pM
koff [7]: 0.00124 s⁻¹
kon [7]: 1.6e+06 M⁻¹ s⁻¹
Kd [8]: 780 pM
koff [8]: 0.00124 s⁻¹
kon [8]: 1.6e+06 M⁻¹ s⁻¹
binding result (C domain of human CD33): no binding
B13: ADI-11776 Fab (Fab, V domains shown)
VH: EVQLLESGGGLVQPGGSLRLSCAASGFTFSKYTMSWVRQAPGKGLEWVSAIVGSGESTYFADSVKGRFTISRDNSKNTLYLQMNSLRAEDTAVYYCAREGGPYYDSSGYFVYYGMDVWGQGTTVTVSS
VL: DIQMTQSPSTLSASVGDRVTITCRASQSISSWLAWYQQKPGKAPKLLIYKASSLESGVPSRFSGSGSGTEFTLTISSLQPDDFATYYCQQYDDLPTFGGGTKVEIK
notes: Fab fragment; also called Ab3; H76

Kd [3]: 243 pM
koff [3]: 0.0002 s⁻¹
kon [3]: 824000 M⁻¹ s⁻¹
B14: ADI-11819 IgG (antibody, V domains shown)
VH: EVQLVESGGGLVKPGGSLRLSCAASGFTFSSYAMSWVRQAPGKGLEWVSSISSSSEGIYYADSVKGRFTISRDNAKNSLYLQMNSLRAEDTAVYYCAREGGPYYDSSGYFVYYGMDVWGQGTTVTVSS
VL: DIQMTQSPSTLSASVGDRVTITCRASNSISSWLAWYQQKPGKAPKLLIYEASSTKSGVPSRFSGSGSGTEFTLTISSLQPDDFATYYCQQYDDLPTFGGGTKVEIK
notes: IgG; also called Ab8
